Results published in the DeepSol protein solubility set.

Assay: soluble on expression in E. coli; label from the status in PepcDB or PDB records

Sequence | soluble on expression in E. coli
KKEKSPKGKSSISPQARAFLEEVFRRKQSLNSKEKEEVAKKCGITPLQVRVWFINKRMRSK | soluble
MAHHHHHHMFHRHSFYEKGSSAPRDGAGAGADGTQAHGGAAGGSCNNGGTSSSSTASSQQQREQDERLYGMGSATAQQRRQVRQQWEKSFFGRLHYEEGMHDRFSEALKSEDAEAFRQSIAGQSHADLFPHWPEEEEAPLSEFKRLRPSLQLHYIVNRLSSGERRIRYSVDFGGLLMMPQLNLGEMMVKEADTLLRELGWMNDEVAMRIEEVQALASKIKFDFDLD | soluble
MSLQGLWIYPEDTEVLGVACKSLLKALTPRYQKVALFSPISGGCESLEECESLNPLEFHSAISKQKALELASTAQEELLFETILKRYDELQSTHDFVINLGCAPKFFLNAPLDLNTILAKHLNASVVAVAQTSLEYLKAMHSHILKKEAPFAVGLFAGETLEKPHFLSMSLCKQQCELEADLIESVLQIKSEIITPLAFQRGLEKKAKKQIKKVVLPESEKMKGFEGHHHHHH | not soluble
MGLMHPRQLLTLPNGDVLVVEANSPGTVPITSPKQMIASIVKDRSGKGGKGGNRITLLRKAAGQSGKWEKYVFIENLHSPFGVQLIGDTLYVANTGNIMKYRYTPGETRMSDPGVEFTDLPSTVNHHWTKALLASPDGKKLYVGVGSNSNVAENGLDIEYRRATVLEVDVQSAASRIYASGIRNPTGLGWEPTTGKLWAIVNERDEIGADLVPDYLTSVQEGGFYGWPYSYYGQYVDQRVQPQRPDLVARAIRPDYALGSHVAPLGLWFYQGRNLPEKYHGGAFIGQHGSWNRIPLSGYDVVFVRFKDGKPEGVPEPVVTGFTSADQKTLKGAPVGLAEDAEGALLIADDVGNTIWRVTARGLEHHHHHH | not soluble
MDIVLVGCKGFGKEHLRIYSKLGYDVSIVERDSNEAKRCSELFRVYKVYDNYEDALRSGSNIVDLVVPDGLHYEMGSLALKSKKHLLVEKPITPDIDSGISLIQQAEESKLKLMVAEQFYFDPSVNEAIRRINNGEIGKPHTVIVRHQSFRELKGWRNEKSMMGRGILIDEGTHYIDTLLNFGGRYRSLRSFVHRTWDFLGEDTAEAVFNFENGMHGLFFYSWNYPEYPLLPEFEIIGDAGSIYEDIGTKPTEPWDQRKRKTAYGDIIVNGKHIPVEPYDVIEREISGFLNAVEKDEPVPMPPDLALRDIITIDRIYKASSD | not soluble
MSLNKAILHDHLDGGLRPSTALELAKNDSYKPLLEIENISSFFDRSSSNSLEDYLEAFIHTTALMNKYENLERIAFEAAEDMHNCGINLYESRYAPLYSVNENLSIKDVLESINSGFKQAENLYGIQSGLILCGMRNDLKNVESVGEIAVKYKDLIIGFDIAGPELNFRPSLFSSTFKKVKNAGVNITIHAGEGDNVESIKDALENGAKRIGHGVRIIEDINLENNKLGETASLIRDKQIPLEICITSNIHTNMYKSYESHPIKDLVDLGFNISLNTDNRLMSNTDIVKEMNICKNIGIKNPENLLEMSASYSFLNEGHHHHHH | not soluble
MSDVDADEARKMAERERKKEEVRKRLEEASRMKKAKKGFLTPERKKKLRKLLMMKAAEDLKQQQMLKEQERQRILQERIIPLPDLDNEDDLEAVYDEIRERLIDLESENYDVSYIVRQKDFEINELTIAVNDLRGKFVKPTLKKVSKTEGKFDKLKKKEATKVDFRAQLKVVDKNEFALDEEDTEKKEKAAWAK | not soluble
MRTFDLTAALGDRANQPEISRLLVAQLMTSNNEDTRKLRRAQEREQTQELNELAHRLAGMASLIHAHAVERACHQLEIACGESSVRKLADAVDDLVTALGELQCELHDWMTMTAPQGTAKS | not soluble
MSLSTRVFPERPILVVDDERAALDGFEVALVSSGYTNIVTMDDSRKVLPFIAEHEAELILLDLIMPHVSGTELIEEIKRRRPEVPIIIITAVNDIDSVVECIRNGAQDYILKPVDKDHLRNRVQQALERRELERENRLLRASLLDGEIRHPEAFSDIVTQDQKMHAIFRYCEAVAPSTKPILITGETGTGKELVAQALHRLSGRKGEFVAVNIAAFDDPVFADTLFGHSRGAFTGADTPRAGLVEKAAGGTLFLDEIGDLPALSQVKLLRLLQEKEYFPVGSDNAKKANVRIVASTLKNLVDLRHRGLFRDDLYYRLTTHRIHIPPLRERPGDIPCLLDHFLELDAREQKRKPPSYHPELINLLRSYAFPGNIRELRGMISDAFMNHASHMLSSSSFRQYIMNEGHHHHHH | soluble
MSDEKKKKRGFFRYSVLTTSSFSSWRRSSTSGSISQSSRTTSKTTTSSSVTSSNPINAPPPTATSSSSVLPSTSSEPPPPASAPPRISIYHKMVPSKSKFRQCDVCEHIFIFDFVRKQHLDDVYACNVCGIRVHKGCLDRVKNDCKITTQYMGGILENAVIQSNKKQWEKPTTASISKSLTTSPTCSTSTTMSPAGVEKNVHKTRKLISMTTSTLDDVTTFNSEINEEMDEETVLMTWEDVTIKLTDVDVMTKIGDGRFGSVYFGGYHGNAAVRFVNMNYLSQEDRRADVFATEIVSAYKNSRHDHIALFYGYVSDPVTNTYAIVTNFYQHNTLYHRIHEQLSEDFDQSWTFQISLQICQAMSYLHKKKILHRDLRTKNILLDNPNRVVVTDFALMKLERLENPRRNCTLLIPNHWIDYLSPEIAGNLMIDWRGDVLFQHELPFSQESDVYSFGTIFFELLLRRMPTGCDSWDQKLYAKMCGQKAALQRLDAQLQKIDGKLHELLLECWSSQPEKRPSFQQIVKRITVQMPRKESNKQKRRSTAHENPLF | not soluble
MKKIVFLLLLCVACCMNAQEFHLIPKVGLNLANTTGEVDSKVRPGLNIGLGGDVMLTERFGIETGVYYSMQGSKYKGGGVSYTDKLDYINVPVYAKEFIYKGLYVFGGPQFSFNVNSENKSSSDYGTTVIGMNVIRKFDCGVGLGAGYQFERGLLISLNYNIGLINVNKSWASDSNPKANNSVVQLNVGWRFAL | not soluble
MKIGFIGAGSMGGAMIKGLLKAEAVKKEHLYVKGGSSGTAEALQKEWGFQLVTDYALFQECKVIFIATGAKVVLPVLQELAPHFSNESLLISVATGHTIQEAQMALGNKEAKVVHAIPNTPVSVNQGVIGVALAPTIEGQTKDLAMELLATLGLVKEIREAQLETFGTVAGCSPAFVDIFMEALGDAAVLEGLPRDLSYEIVAQMIKGTATLALDTKKHPGALKDEVTSPGGSTIRGVVALEKNGFRYAVMDAVQQANHE | soluble
MWPPQGVPMSTPGSSAGHMPLGAGAASFPGQMNGPPQHPGMQYSGQMQQLPYGQMEGNHAMYDQRIMGQRAAGRPGMMPDYPQMPMGQTPGNTMMRMPVQYPSGPSQMAGHPHMQQMQYGHMMRAPPVSVYGQMNNAQQYAVTAHPNPVPQPYYHPEVRQLYETTAGYIVDRELLAEGHVTPGSNGVEAMLTHDASDFLKVSPQTDVLFSIWPVTKSNDPNIQYEVYINQKSVMNSHMQVKSIFIKDFLISGMNSIHIVYNGPQQMYKYACEFVTRKSVIELRKILIQKRVIEGQQLATQQKQQYMQMANKRQAGFYPVSLNCVLSKKRMFTPAKHHECKKIFDLAQLINANKGMTRYFCQTCNAYFKFEDITADYFLLNFLQSIPAGVNDLIVEKTGVVRSGDVEDVKPKRGKKKTDNDANGNGIKRIKSEIIVKQETFTDMHGRNVPFSPMPMPGSVPPDWTRLQSPSFSMQSPNKVQLGPATPATPGMVFQNPASAGSMLNMSSPRQTMIPGMHPMMPPHDVTMRSGSAPYTPESVKNDKNDELLMHIEGLYVCDVPILENEQLTVRYMDGTKDLCFEDSMVYEFAESPKHQQQIDGPPQTLMAPGSTASSSGSTFTPPFDDIHLGNRPSH | not soluble
MSLRTILVTGASGFVGGALCRQLATLGSFAIRAASRDLGGASVAGIQAVTVADLSATTDWARALSGVDLVVHAAARVHVMKETASDSLAEFRRVNVDGTLNLARQAAAAGVRRFIFISSIKVNGESSQPGQPLRADDSPAPQDAYGVSKHEAEQGLRQLAAATGMEVVVIRPVLVYGPGVKANFHSMMRWLQRGVPLPFGAVCNRRSLVSLANLVDLVVTCIDHPRAANQTFLASDGDDVSLTQLLRALGLALGRPARLLPVPAGLLRGAVLLIGRRDLAQRLFGTLQVDIEKNRQLLGWYPPCTLEQGLNMTARSFLGARREGHHHHHH | soluble
KKPLSVFKGPLLHISPAEELYFGSIESGEKKTLIVLTNVTKNIVAFKVRTTAPEKYRVKPSNSSCDPGASIDIIVSPHGGLTVSAQDRFLIMAAEMEQSSGTGPAELSQFWKEVPRNKVMEHRLRCHTVESSKPNSLML | soluble
MSLRQKQKEGGTYSPQDAEIIDTKLKLDQLITVADLELKDERLTRMTVMAATEKFQIMKKELPKFLQDLSSTDADLPWNRAKNRFPNIKPYNNNRVKLIADASVPGSDYINASYISGYLCPNEFIATQGPLPGTVGDFWRMVWETRAKTLVMLTQCFEKGRIRCHQYWPEDNKPVTVFGDIVITKLMEDVQIDWTIRDLKIERHGDCMTVRQCNFTAWPEHGVPENSAPLIHFVKLVRASRAHDTTPMIVHCSAGVGRTGVFIALDHLTQHINDHDFVDIYGLVAELRSERMCMVQNLAQYIFLHQCILDLLSNKGSNQPICFVNYSEGHHHHHH | soluble
MGSTSSLYAAIDLGSNSFHMLVVREVAGSIQTLTRIKRKVRLAAGLNSENDLSNEAMERGWQCLRLFAERLQDIPPSQIRVVATATLRLAVNAGDFIAKAQEILGCPVQVISGEEEARLIYQGVAHTTGGADQRLVVDIGGASTELVTGTGAQTTSLFSLSMGCVTWLERYFADRNLGQENFDAAEKAAREVLRPVADELRYHGWKVCVGASGTVQALQEIMMAQGMDERITLEKLQQLKQRAIHCGRLEELEIDGLTLERALVFPSGLAILIAIFTELNIQCMTLAGGALREGLVYGMLHLAVEQDIRSRTLRNIQRRFMIDIDQAQRVAKVAANFFDQVENEWHLEAISRDLLISACQLHEIGLSVDFKQAPQHAAYLVRNLDLPGFTPAQKKLLATLLLNQTNPVDLSSLHQQNAVPPRVAEQLCRLLRLAIIFASRRRDDLVPEMTLQANHELLTLTLPQGWLTQHPLGKEIIAQENQWQSYVHWPLEVH | not soluble
ASTQGISEDLYNRLVEMATISQAAYADLCNIPSTIIKGEKIYNAQTDINGWILRDDTSKEIITVFRGTGSDTNLQLDTNYTLTPFDTLPQCNDCEVHGGYYIGWISVQDQVESLVKQQASQYPDYALTVTGHSLGASMAALTAAQLSATYDNVRLYTFGEPRSGNQAFASYMNDAFQVSSPETTQYFRVTHSNDGIPNLPPAEQGYAHGGVEYWSVDPYSAQNTFVCTGDEVQCCEAQGGQGVNDAHTTYFGMTSGACTW | soluble
MSVNVRPVKRFVEEQKKKNPEIKLSEKATQLLTDMPKMDSPEKLFNLEDKIATEMGSDRIFEEFLQDYAFLRNAVEEYLDGKPTSSDTISKIARLRRNTRLTHYGTALMRKEVAERMENVDAKLLQLQNVTSEVQHIQKEIDRCLDFSAGDEELELVPFEQFHTEASEILANETADNEHEQYLARLKFENEQRRELLSTLNELEGRRNVLQSDIRGKEVRLQGLKPKLEDLTKVAEPVFEMVGAKFKDLSIEGEQRKLSLQLPAPLAVAHIHAAAYKEIHDGEYSKILRNFLYKYKLFEFRILGTNDTEKQSKDETEAMKRKRKEDETTQEKINKMASELLEVHPMSLEFEIECSENIKISMQIQYLTELKVTTAKWHINTDSKLKKSPFFSIDSLMSDLFENDTGDKCPNDVGEMKIEHLKMNFNSSAKQIGKPFKFIQEISGSEGETDRIGATEHLRKVITTIRTRISNRAVLDGIIRDLESKKTDDLNLEPEVKINSFKICDDESFIASIPTSLTKKISNSAATDRFSYKIEASDGNGRKLTAYISIPADYPRHTALFGIAAPEDSESSTEVARQIEDRLNTEAHYVDDVKSIKEQLSLLLKHIDLS | not soluble
MDLFDTPLAPLQVLDDAEGGVRYWPQLLAPAVAQAAFAALRDGADWQRHQRTMYDRVVDVPRLLASYRLDAPLPPGLPLQLLLAAVQAQLPAPYNAVGLNLYRDGRDSVAMHHDKLHTLLAPHPIALLSLGTPRRMQLRAKQGATRAITLELAPGSLLAMSHASQLTHEHGIPKTTRALGERISVVFRVRPPARMAAGQHGPHWEALTQTDLEHHHHHH | soluble
